Experimental data as given in PMC12143597, “The low endoribonuclease activity and lack of rNMP preference of human mitochondrial topoisomerase 1 protect against ribonucleotide-dependent deletions”.

T1: scTOP1 catalytically inactive variant (Saccharomyces cerevisiae) (UniProt P04786)
T1 sequence: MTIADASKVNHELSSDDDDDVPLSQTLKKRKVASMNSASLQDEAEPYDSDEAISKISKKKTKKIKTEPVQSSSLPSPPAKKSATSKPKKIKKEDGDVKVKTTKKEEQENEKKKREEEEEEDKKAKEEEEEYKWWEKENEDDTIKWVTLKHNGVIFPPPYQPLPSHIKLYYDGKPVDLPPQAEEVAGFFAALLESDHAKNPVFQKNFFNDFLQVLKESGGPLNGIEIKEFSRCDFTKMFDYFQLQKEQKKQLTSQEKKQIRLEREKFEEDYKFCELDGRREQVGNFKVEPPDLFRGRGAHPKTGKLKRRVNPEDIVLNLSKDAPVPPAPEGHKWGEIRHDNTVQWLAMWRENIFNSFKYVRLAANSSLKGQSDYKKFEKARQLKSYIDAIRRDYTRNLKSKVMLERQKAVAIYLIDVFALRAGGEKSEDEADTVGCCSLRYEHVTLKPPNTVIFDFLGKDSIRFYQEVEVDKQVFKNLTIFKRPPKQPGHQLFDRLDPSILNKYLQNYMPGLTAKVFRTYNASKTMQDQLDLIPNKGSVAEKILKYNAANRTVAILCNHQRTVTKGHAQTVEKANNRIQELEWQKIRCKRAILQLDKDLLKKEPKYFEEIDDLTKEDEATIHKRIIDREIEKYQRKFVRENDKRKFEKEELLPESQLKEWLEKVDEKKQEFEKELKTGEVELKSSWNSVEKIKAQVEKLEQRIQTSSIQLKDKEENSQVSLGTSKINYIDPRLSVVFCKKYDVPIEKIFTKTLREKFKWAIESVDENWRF

T2: hTOP1MT catalytically inactive (Y955F) (Homo sapiens, UniProt Q969P6 =DIKLIDTVDLE+51-601, Y559F;internal_change)
T2 sequence: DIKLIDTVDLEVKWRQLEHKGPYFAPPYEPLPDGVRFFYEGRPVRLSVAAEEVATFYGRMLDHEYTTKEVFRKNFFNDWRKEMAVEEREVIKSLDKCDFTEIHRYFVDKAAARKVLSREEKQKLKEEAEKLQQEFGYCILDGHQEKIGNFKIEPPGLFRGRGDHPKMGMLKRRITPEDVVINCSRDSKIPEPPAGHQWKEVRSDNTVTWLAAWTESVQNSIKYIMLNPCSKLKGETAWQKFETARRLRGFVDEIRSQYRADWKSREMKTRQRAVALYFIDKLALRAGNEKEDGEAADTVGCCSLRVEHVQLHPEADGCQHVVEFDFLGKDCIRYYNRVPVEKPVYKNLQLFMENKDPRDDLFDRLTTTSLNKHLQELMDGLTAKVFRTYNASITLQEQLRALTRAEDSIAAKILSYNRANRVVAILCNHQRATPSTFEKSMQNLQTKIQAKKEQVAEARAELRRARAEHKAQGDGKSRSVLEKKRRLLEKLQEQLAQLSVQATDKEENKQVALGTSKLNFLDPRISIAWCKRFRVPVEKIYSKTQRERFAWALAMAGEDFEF


Experiments:
[1] = biological target: T1, scTOP1 catalytically inactive variant (Saccharomyces cerevisiae); experiment: fluorescence anisotropy; conditions: 20 mM Tris pH 8, 66 mM NaCl, 1 mM DTT, 2% glycerol, 0.5 nM DNA, 0-60 nM TOP1, 10 min at 37 C, errors are SEM of 3-5 experiments
[2] = biological target: T2, hTOP1MT catalytically inactive (Y955F …); experiment: fluorescence anisotropy; 20 mM Tris pH 8, 66 mM NaCl, 1 mM DTT, 2% glycerol, 0.5 nM DNA, 0-60 nM TOP1, 10 min at 37 C; errors are SEM of 3-5 experiments; conditions: protein: recombinant; tags: GST tag removed by 3C protease; label: 5'-FAM on strand 1; blunt
[3] = biological target: hTOP1 catalytically inactive variant (Homo sapiens, UniProt P11387 1-765, Y723F); experiment: as above; conditions: protein: recombinant; tags: N-terminal GST tag removed by 3C protease; label: 5'-FAM on strand 1; blunt
Sequence of hTOP1 catalytically inactive variant (P11387 whole entry Y723F): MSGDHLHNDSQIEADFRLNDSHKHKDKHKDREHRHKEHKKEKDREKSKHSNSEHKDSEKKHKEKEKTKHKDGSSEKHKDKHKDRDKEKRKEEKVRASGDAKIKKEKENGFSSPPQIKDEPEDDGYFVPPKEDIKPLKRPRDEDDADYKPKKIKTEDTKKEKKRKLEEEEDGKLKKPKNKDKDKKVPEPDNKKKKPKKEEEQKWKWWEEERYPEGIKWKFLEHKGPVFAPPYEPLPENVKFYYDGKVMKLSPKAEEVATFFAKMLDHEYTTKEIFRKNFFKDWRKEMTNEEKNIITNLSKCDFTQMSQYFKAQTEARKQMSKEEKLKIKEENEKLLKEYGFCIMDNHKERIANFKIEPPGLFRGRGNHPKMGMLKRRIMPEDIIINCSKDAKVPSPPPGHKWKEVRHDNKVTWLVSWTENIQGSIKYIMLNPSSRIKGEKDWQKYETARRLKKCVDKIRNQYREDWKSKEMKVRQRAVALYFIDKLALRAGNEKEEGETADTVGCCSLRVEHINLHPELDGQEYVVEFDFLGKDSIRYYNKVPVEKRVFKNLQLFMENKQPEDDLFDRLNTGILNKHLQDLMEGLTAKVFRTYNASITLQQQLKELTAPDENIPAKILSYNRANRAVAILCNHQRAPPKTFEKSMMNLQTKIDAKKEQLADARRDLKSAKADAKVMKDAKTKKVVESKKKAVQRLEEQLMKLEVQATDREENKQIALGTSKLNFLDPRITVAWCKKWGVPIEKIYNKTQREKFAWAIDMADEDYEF

| Molecule | Kd [2] [nM] | Kd [3] [nM] | also measured |
| --- | --- | --- | --- |
| ACTCGTCACGAGAGAGATGCCACGGTATTTCAAA (double strand) [Substrate D (rG upstream of cleavage site)] |  |  | Kd ([1]; single ribonucleotide rG at position 16 of strand 1, all else DNA): 6 nM |
| ACTCGTCACGAGAGAGATGCCACGGTATTTCAAA (double strand) [Substrate C] |  |  | Kd [1]: 6.6 nM |
| AGCGTTGAAGAUATGTGGCAAAACCTTTGT / ACAAAGGTTTTGCCACATATCTTCAACGCT [Substrate B (rU at cleavage site)] |  |  | Kd ([1]; single ribonucleotide rU at position 12 of strand 1, all else DNA): 5.5 nM |
| AGCGTTGAAGATATGTGGCAAAACCTTTGT (double strand) [Substrate A] |  |  | Kd [1]: 4.6 nM |
| Substrate D (rG upstream of cleavage site) (dsDNA, single ribonucleotide rG at position 16 of strand 1; all else DNA) DNA 1: ACTCGTCACGAGAGAGATGCCACGGTATTTCAAA DNA 2: TTTGAAATACCGTGGCATCTCTCTCGTGACGAGT | 4.6 ± 0.37 | 1.2 ± 0.09 |  |
| Substrate C (dsDNA) DNA 1: ACTCGTCACGAGAGAGATGCCACGGTATTTCAAA DNA 2: TTTGAAATACCGTGGCATCTCTCTCGTGACGAGT | 4.7 ± 0.83 | 1.8 ± 0.05 |  |
| Substrate A (dsDNA) DNA 1: AGCGTTGAAGATATGTGGCAAAACCTTTGT DNA 2: ACAAAGGTTTTGCCACATATCTTCAACGCT | 8.3 ± 0.59 | 0.97 ± 0.06 |  |
